Test results taken from patent publication US8106168B2, “Metalloproteinase binding proteins” (Dyax Corp., priority 2005, dated 2012).
Substitutions are numbered along the chain they refer to. One block for each molecule: values may come before it.

Assays:
[1] = target: T1, MMP-14 (Homo sapiens, UniProt P50281); assay: Selection and phage ELISA screening of anti-MMP-14 Fabs; format: binding; conditions: Fab from FAB310 phage display library
How it was run: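 The FAB310 phage library was panned on biotinylated MMP-14, alone or complexed with bead-bound TIMP-2, at 500 nM and then 100 nM over three rounds. Phage was eluted with 2.5 μM TIMP-2, then 100 mM TEA. For ELISA, 95 clones per round were screened against 1 μg/ml biotinylated MMP-14 captured on streptavidin in TRIS/5 mM CaCl2, pH 7.5.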

[2] = target: T2, MMP-16 (Homo sapiens, UniProt P51512); assay: Cross-reactivity of Fabs with MMP-16 (Example 9); format: biochemical; design: key: X: Do not inhibit MMP-16 or MMP-24 at [I] = 100 nM level; Y: partially inhibit at [I] = 100 nM level; conditions: Fab, 100 nM final inhibitor concentration, 5 nM MMP-16
Method: (§1) For the studies summarized in Table 15, 1 μM of anti-MMP-14 Fab/IgG (100 nM final inhibitor concentration) were incubated with 5 nM of MMP-16 or 5 nM of MMP-24 for 30 minutes at 30° C., 10 μM of substrate was added, and the MMP-16 activity was measured.

[3] = target: MMP-24 (Homo sapiens, UniProt Q9Y5R2); assay: Cross-reactivity of Fabs with MMP-24 (Example 9); format: biochemical; design: key to MMP-24 (cross-reactivity, class symbol): X: Do not inhibit MMP-16 or MMP-24 at [I] = 100 nM level; Y: partially inhibit at [I] = 100 nM level; conditions: Fab, 100 nM final inhibitor concentration; 5 nM MMP-24
Method: as §1

[4] = target: T1, MMP-14; assay: IC50 for MMP-14 inhibition by Fabs and IgGs; format: biochemical; conditions: Fab
Method: MMP-14 binding proteins can be characterized in assays that measure their modulatory activity toward MMP-14 or fragments thereof in vitro or in vivo. For example, MMP-14 can be combined with a substrate such as Mca-Pro-Leu-Ala-Cys(Mob)-Trp-Ala-Arg-Dap(Dnp)-NH2 under assay conditions permitting cleavage by MMP-14. The assay is performed in the absence of the MMP-14 binding protein, and in the presence of increasing concentrations of the MMP-14 binding protein. The concentration of binding protein at which 50% of the MMP-14 activity (e.g., binding to the substrate) is inhibited is the IC50 value (Inhibitory Concentration 50%) or EC50 (Effective Concentration 50%) value for that binding protein.

[5] = target: T2, MMP-16; assay: Cross-reactivity of Fabs and IgGs with MMP-16 (Example 8); format: biochemical; design: key to MMP-16 (cross-reactivity, class symbol): X: Does not inhibit MMP-16 at [I] = 100 nM level; conditions: 5 nM MMP16, 30 minutes at 30° C., 10 μM substrate
Method: For the studies summarized in Tables 13 and 14, 100 nM anti-MMP-14 Fab/IgG were incubated with 5 nM MMP16 for 30 minutes at 30° C., 10 μM of substrate was added, and the MMP-16 activity was measured.

T2 sequence (P51512 120-607): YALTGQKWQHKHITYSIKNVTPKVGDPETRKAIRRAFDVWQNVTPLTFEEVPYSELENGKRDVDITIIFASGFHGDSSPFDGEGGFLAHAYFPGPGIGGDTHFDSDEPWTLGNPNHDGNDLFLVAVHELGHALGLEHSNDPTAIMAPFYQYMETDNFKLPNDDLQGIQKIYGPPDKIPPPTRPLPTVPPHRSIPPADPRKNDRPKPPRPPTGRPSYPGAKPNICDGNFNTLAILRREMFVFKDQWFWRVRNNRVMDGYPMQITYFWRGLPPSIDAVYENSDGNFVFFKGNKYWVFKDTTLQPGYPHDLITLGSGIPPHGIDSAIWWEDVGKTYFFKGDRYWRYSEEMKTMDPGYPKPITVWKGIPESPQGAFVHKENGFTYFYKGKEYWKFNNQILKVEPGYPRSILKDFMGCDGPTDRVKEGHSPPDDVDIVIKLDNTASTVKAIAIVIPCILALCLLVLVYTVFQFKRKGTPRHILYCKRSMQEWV
Chain of MMP-24 (Q9Y5R2 156-645): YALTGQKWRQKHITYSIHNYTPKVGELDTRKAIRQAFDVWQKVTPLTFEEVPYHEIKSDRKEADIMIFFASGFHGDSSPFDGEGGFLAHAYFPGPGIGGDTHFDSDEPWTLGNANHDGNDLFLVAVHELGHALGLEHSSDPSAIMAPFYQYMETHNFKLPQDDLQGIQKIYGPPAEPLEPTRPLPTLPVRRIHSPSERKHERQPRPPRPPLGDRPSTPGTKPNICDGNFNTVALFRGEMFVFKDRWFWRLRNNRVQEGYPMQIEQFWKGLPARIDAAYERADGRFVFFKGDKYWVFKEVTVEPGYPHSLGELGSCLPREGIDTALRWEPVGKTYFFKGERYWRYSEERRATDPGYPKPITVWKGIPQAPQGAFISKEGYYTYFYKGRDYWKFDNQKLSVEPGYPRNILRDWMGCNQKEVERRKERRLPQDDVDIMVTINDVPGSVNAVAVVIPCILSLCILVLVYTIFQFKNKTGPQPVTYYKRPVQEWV

B2: M0038-E06: human antibody (Fab, IgG) that binds and inhibits MMP-14; HC SEQ ID NO: 154, LC SEQ ID NO: 155 (antibody, V domains shown)
VH: EVQLLESGGGLVQPGGSLRLSCAASGFTFSPYVMHWVRQAPGKGLEWVSSISPSGGWTYYADSVKGRFTISRDNSKNTLYLQMNSLRAEDMAVYYCARGTGAYGMDVWGQGTTVTVSS
VL: QDIQMTQSPGTLSLSPGDRATLSCGASQLVVSNYIAWYQQKPGQAPRLLMYAGSIRATGIPDRFSGSGSGTDFTLTISRLEPEDFAIYYCQQRSNWPWTFGQGTKVEIK
modifications: Synthetically generated peptide
MMP-16 (cross-reactivity, class symbol) [2]: X
MMP-24 (cross-reactivity, class symbol) [3]: X
bind to and inhibit human MMP-14 [4]: bind to and inhibit human MMP-14
MMP-16 (cross-reactivity, class symbol) ([5]; Fab 100 nM): X
MMP-16 (cross-reactivity, class symbol) ([5]; IgG 100 nM): X
bind to human MMP-14 [1]: bind to human MMP-14

B3: M0032-B07: Fab that binds human MMP-14; DNA LV SEQ ID NO: 20, HV SEQ ID NO: 21 (antibody, V domains shown)
VH: EVQLLESGGGLVQPGGSLRLSCAASGFTFSPYLMHWVRQAPGKGLEWVSSIYPSGGITQYADSVKGRFTISRDNSKNTLYLQMNSLRAEDTAVYYCARFFPSHRDYTAFDTWGRGTLVTVSS
VL: QSVLTQEPSLTVSPGGTVTLTCASNTGAVTSGSYANWFQQKPGLTPRALIYSGTNKYSWTPARFSGSLFGGKAALTLSGVLPEDEAEYYCLVYYGGVWVFGGGTKLTVL
modifications: Synthetically generated oligonucleotide
bind to human MMP-14 [1]: bind to human MMP-14

B5: M0042-B07: Fab that binds human MMP-14; DNA LV SEQ ID NO: 122, HV SEQ ID NO: 123 (antibody, V domains shown)
VL: QDIQMTQSPLSLPVTPGEPASISCRSSQSLLHSNGYNYLDWYVQKPGQSPQLLIYLGSGRASGVPDRFSGSGSGTDFTLKINRVEAEDVGVYYCMQALQTPWTFGQGTKVEIK
VH: EVQLLESGGGLVQPGGSLRLSCAASGFTFSPYSMFWVRQAPGKGLEWVSVIYPSGGGTIYADSVKGRFTISRDNSKNTLYLQMNSLRAEDTAVYYCARSRESCDADTCYQYFQEWGQGTLVTVSS
modifications: Synthetically generated oligonucleotide
bind to human MMP-14 [1]: bind to human MMP-14

B6: M0040-A11: human antibody (Fab, IgG) that binds and inhibits MMP-14; HC SEQ ID NO: 164, LC SEQ ID NO: 165 (antibody, V domains shown)
VH: EVQLLESGGGLVQPGGSLRLSCAASGFTFSHYVMFWVRQAPGKGLEWVSRIVPSGGATMYADSVKGRFTISRDNSKNTLYLQMNSLRAEDTAVYYCARDRPLYDSSGYVDYWGQGTLVTVSS
VL: QSALTQPPSASGSPGQSVTISCTGTSSDVGAYNYVSWYQQHPDKAPKLIIYNVNERPSGVPDRFSGSKSGNTASLTVSGLQAEDEADYYCTSYAGSNKIGVSGTGTKVTVL
modifications: Synthetically generated peptide
MMP-16 (cross-reactivity, class symbol) [2]: X
MMP-24 inhibition [3]: Y 58% inhibition
bind to and inhibit human MMP-14 [4]: bind to and inhibit human MMP-14
MMP-16 (cross-reactivity, class symbol) ([5]; Fab 100 nM): X
MMP-16 (cross-reactivity, class symbol) ([5]; IgG 100 nM): X
bind to human MMP-14 [1]: bind to human MMP-14

B8: M0032-B09: Fab that binds human MMP-14; DNA LV SEQ ID NO: 22, HV SEQ ID NO: 23 (antibody, V domains shown)
VH: EVQLLESGGGLVQPGGSLRLSCAASGFTFSIYKMVWVRQAPGKGLEWVSSIGSSGGHTRYADSVKGRFTISRDNSKNTLYLQMNSLRAEDTAVYYCARAPYYYYMDVWGKGTTVTVSS
VL: QDIQMTQSPSSVSASVGDTVTITCRASQGISTWLAWYQHKPGKAPKLLIYAGPSLQSGVPSRFSGSGSGTEFTLTISSLHPEDFATYYCQQLNHYPMTFGQGTRLEIK
modifications: Synthetically generated oligonucleotide
bind to human MMP-14 [1]: bind to human MMP-14

Further lines, results first:

bind to human MMP-14 [1]: bind to human MMP-14
B1: M0043-A09: Fab that binds human MMP-14; DNA LV SEQ ID NO: 126, HV SEQ ID NO: 127 (antibody, V domains shown)
VL: QSVLTQPPSVSKDLRQTATLTCTGNSNNVGYQGAAWLQQHQGHPPKVLSYRNNNRPSGISERFSASRSGNTASLTITGLQPEDEADYYCSAWDSSLTAWVFGGGTKLTVL
VH: EVQLLESGGGLVQPGGSLRLSCAASGFTFSFYDMTWVRQAPGKGLEWVSSIWSSGGVTDYADSVKGRFTISRDNSKNTLYLQMNSLRAEDTAVYYCTRASSGYYDAFDIWGQGTMVTVSS
modifications: Synthetically generated oligonucleotide

bind to human MMP-14 [1]: bind to human MMP-14
B4: M0044-D08: Fab that binds human MMP-14; DNA LV SEQ ID NO: 138, HV SEQ ID NO: 139 (antibody, V domains shown)
VL: QYELTQPLSVSVALGQTASISCWGHNIRIKNVHWYQQKPGQAPVVVMYIPERFSGSTSGNTATLTISGAQAGDEADYYCQVWDSSTVVFGGGTKLTVL
VH: EVQLLESGGGLVQPGGSLRLSCAASGFTFSKYPMSWVRQAPGKGLEWVSSIWPSGGHTFYADSVKGRFTISRDNSKNTLYLQMNSLRAEDTAVYYCAKNPGLRYAFDNWGRGTMVTVSS
modifications: Synthetically generated oligonucleotide

bind to human MMP-14 [1]: bind to human MMP-14
B7: M0043-F01: Fab that binds human MMP-14; DNA LV SEQ ID NO: 130, HV SEQ ID NO: 131 (antibody, V domains shown)
VL: QSALTQPASVSGSPGQSITISCTGTSSDIGAYRYVSWYQQRPGKAPKLMIFDVTKRPSGVSNRFSGFKSGNTASLTISGLQAEDEADYYCSSFTSGSTFVFGTGTKVTVL
VH: EVQLLESGGGLVQPGGSLRLSCAASGFTFSKYSMYWVRQAPGKGLEWVSSISSSGGYTAYADSVKGRFTISRDNSKNTLYLQMNSLRAEDTAVYYCAIPWGSGSSWGQGTLVTVSS
modifications: Synthetically generated oligonucleotide

bind to human MMP-14 [1]: bind to human MMP-14
B9: M0043-C03: Fab that binds human MMP-14; DNA LV SEQ ID NO: 128, HV SEQ ID NO: 129 (antibody, V domains shown)
VL: QDIQMTQSPASLYLSPGERATLSCRASQSVSSNLAWYQQKPGQAPRLLIYGASTRATGIPARFSGSGSGTEFTLTISSLQSADFAVYYCQQYDNWPPLTFGGGTKVEIK
VH: EVQLLESGGGLVQPGGSLRLSCAASGFTFSYYAMDWVRQAPGKGLEWVSSIGSSGGDTVYADSVKGRFTISRDNSKNTLYLQMNSLRAEDTATYYCARDPRQPGVFDYWGQGTLVTVSS
modifications: Synthetically generated oligonucleotide

bind to human MMP-14 [1]: bind to human MMP-14
B10: M0043-G01: Fab that binds human MMP-14; DNA LV SEQ ID NO: 132, HV SEQ ID NO: 133 (antibody, V domains shown)
VL: QDIQMTQSPSAMSASVGDRVTITCRASQGISSWLAWYQQKPGKAPKLLIYAASSLQSGVPSRFSGSGSGTDFTLTISSLQPEDFATYYCQQANSFPLTFGGGTKVEIK
VH: EVQLLESGGGLVQPGGSLRLSCAASGFTFSFYSMHWVRQAPGKGLEWVSGISSSGGVTKYADSVKGRFTISRDNSKNTLYLQMNSLRAEDTAVYYCARARSTRGFDYWGQGTLVTVSS
modifications: Synthetically generated oligonucleotide

bind to human MMP-14 [1]: bind to human MMP-14
B11: M0044-B03: Fab that binds human MMP-14; DNA LV SEQ ID NO: 136, HV SEQ ID NO: 137 (antibody, V domains shown)
VL: B10 VL with A11S, M12V, G29N, S31Y, K40R, Q56H, N93K, L97V
VH: EVQLLESGGGLVQPGGSLRLSCAASGFTFSQYHMMWVRQAPGKGLEWVSSIGSSGYTKYADSVKGRFTISRDNSKNTLYLQMNSLRAEDTAVYYCAGAVAGTGAFDYWGQGTLVTVSS
modifications: Synthetically generated oligonucleotide
